B1: C8orf76 (parent)
chain: KLAEAYLNLGPALSAALASSQKQH

Variants of: B1
Assay: protein stability index of a GFP-peptide fusion (GPS, HEK-293T) (PSI 1-6); higher = more stable
Details: c terminus: a fixed tail appended
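Further: lentivirally expressed fusions sorted by FACS into six bins by GFP to DsRed ratio, PSI derived from sequencing read proportions per bin multiplied by bin number.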

| Variant | protein stability index |
| --- | --- |
| L9S | 1.96 |
| L9Y | 2.06 |
| L9G | 2.68 |
| L9H | 2.26 |
| L9A | 4.3 |
| L9N | 2.89 |
| L9F | 2.56 |
| L9I | 3.05 |
| L9V | 1.91 |
| L9D | 3.5 |
| L9P | 2.75 |
| L9T | 2.62 |
| L9M | 2.36 |
| L9K | 3.11 |
| L9E | 2.36 |
| L9R | 2.61 |
| L9Q | 3.08 |
| L9W | 3.02 |
| L9C | 1.36 |
| L17V | 1.59 |
| L17T | 1.95 |
| L17S | 2.03 |
| L17E | 2.26 |
| L17H | 2.17 |

| Variant | protein stability index |
| --- | --- |
| L17D | 2.94 |
| L17P | 2.76 |
| L17R | 2.45 |
| L17G | 1.95 |
| L17I | 2.16 |
| L17M | 2.69 |
| L17A | 1.65 |
| L17F | 2.21 |
| L17K | 1.81 |
| L17Q | 2.17 |
| L17Y | 1.97 |
| L17C | 1.6 |
| L17N | 2.56 |
| L13D | 3.15 |
| L13T | 2.65 |
| L13F | 2.03 |
| L13C | 2.77 |
| L13Q | 2.76 |
| L13G | 2.65 |
| L13K | 2.36 |
| L13N | 2.31 |
| L13E | 3.29 |
| L13H | 2.23 |
| L13W | 2.06 |

| Variant | protein stability index |
| --- | --- |
| L13S | 2.54 |
| L13I | 3.23 |
| L13M | 1.8 |
| L13Y | 2.14 |
| L13A | 1.99 |
| L13P | 2.82 |
| L13V | 1.48 |
| L13R | 2.24 |
| L2G | 2.36 |
| L2M | 1.68 |
| L2P | 3.15 |
| L2D | 3.38 |
| L2Q | 2.57 |
| L2V | 1.33 |
| L2S | 3.07 |
| L2T | 2.8 |
| L2H | 2.66 |
| L2F | 1.11 |
| L2I | 2.6 |
| L2R | 2.38 |
| L2C | 2.03 |
| L2W | 2.89 |
| L2A | 2.15 |
| L2K | 3.38 |

| Variant | protein stability index |
| --- | --- |
| L2E | 3.62 |
| L2Y | 1.97 |
| L2N | 2.61 |
| E4C | 1.57 |
| E4W | 3.01 |
| E4K | 1.43 |
| E4D | 2.2 |
| E4Y | 2.55 |
| E4F | 1.94 |
| E4H | 3.03 |
| E4V | 1.39 |
| E4A | 1.83 |
| E4P | 2.2 |
| E4R | 1.6 |
| E4S | 1.31 |
| E4T | 3.2 |
| E4Q | 2.63 |
| E4M | 4.83 |
| E4I | 2.97 |
| E4G | 2.43 |
| E4N | 2.35 |
| P11R | 3.7 |
| P11K | 1.94 |
| P11E | 2.52 |

| Variant | protein stability index |
| --- | --- |
| P11M | 2.9 |
| P11H | 1.84 |
| P11A | 2.16 |
| P11S | 3.4 |
| P11D | 2.26 |
| P11F | 2.45 |
| P11Q | 2.28 |
| P11C | 2.49 |
| P11I | 2.53 |
| P11Y | 1.26 |
| Y6Q | 2.73 |
| Y6R | 2.98 |
| Y6W | 2.08 |
| Y6S | 3.04 |
| Y6D | 3.94 |
| Y6H | 2.3 |
| Y6A | 1.54 |
| Y6P | 3.59 |
| Y6T | 1.85 |
| Y6C | 2.32 |
| Y6K | 3.18 |
| Y6N | 3.58 |
| Y6V | 3.81 |
| Y6E | 3.65 |

| Variant | protein stability index |
| --- | --- |
| Y6I | 2.39 |
| K1I | 2.14 |
| K1Q | 2.44 |
| K1H | 1.97 |
| K1T | 2.78 |
| K1V | 2.25 |
| K1P | 1.19 |
| K1L | 5.14 |
| K1W | 3.61 |
| K1C | 4.61 |
| K1D | 2.06 |
| K1N | 3.67 |
| K1Y | 2.63 |
| K1E | 2.64 |
| K1S | 2.08 |
| S14N | 2.86 |
| S14H | 2.18 |
| S14K | 1.3 |
| S14Q | 2.93 |
| S14V | 4.08 |
| S14A | 1.47 |
| S14M | 3.24 |
| S14F | 4.03 |
| S14R | 2.06 |

| Variant | protein stability index |
| --- | --- |
| S14P | 1.81 |
| S14E | 1.23 |
| S14T | 3.75 |
| S14Y | 2.35 |
| S14G | 2.12 |
| S14D | 2.06 |
| A16F | 3.07 |
| A16G | 2.4 |
| A16R | 2.43 |
| A16D | 2.18 |
| A16K | 1.97 |
| A16P | 2.39 |
| A16Y | 2.95 |
| A16Q | 2.38 |
| A16H | 2.86 |
| A16L | 3.68 |
| A16E | 1.82 |
| A16I | 4.08 |
| A16T | 2.12 |
| A16S | 2.41 |
| A16V | 2.05 |
| A16W | 1.09 |
| A16N | 1.95 |
| A3D | 3.08 |

| Variant | protein stability index |
| --- | --- |
| A3G | 2.22 |
| A3V | 3.08 |
| A3P | 2.48 |
| A3K | 1.93 |
| A3T | 1.52 |
| A3N | 2.12 |
| A3I | 2.07 |
| A3R | 2.24 |
| A3S | 1.82 |
| A3Y | 3.71 |
| A3H | 2.29 |
| A3L | 3.56 |
| A3Q | 1.72 |
| A3M | 1.43 |
| A3E | 1.85 |
| A3C | 3.15 |
| A3F | 3.79 |
| A3W | 3.22 |
| S19D | 1.89 |
| S19G | 3.14 |
| S19T | 3.75 |
| S19E | 2.95 |
| S19A | 4.1 |
| S19Q | 2.43 |

| Variant | protein stability index |
| --- | --- |
| S19V | 2.64 |
| S19W | 2.57 |
| S19N | 3 |
| S19F | 2.5 |
| S19C | 2.07 |
| S19K | 2.51 |
| S19Y | 2.84 |
| S19R | 2.74 |
| S19I | 3.22 |
| S19M | 3.29 |
| S19L | 2.35 |
| S19P | 2.08 |
| S19H | 3.15 |
| A5W | 1.58 |
| A5K | 1.82 |
| A5L | 4.98 |
| A5D | 2.44 |
| A5T | 2.93 |
| A5Y | 4.03 |
| A5M | 3.68 |
| A5V | 1.89 |
| A5C | 4.48 |
| A5S | 1.24 |
| A5P | 2.76 |

| Variant | protein stability index |
| --- | --- |
| A5G | 2.03 |
| A5F | 3.28 |
| A5Q | 2.33 |
| A5N | 2.07 |
| A5H | 2.04 |
| A5R | 2.27 |
| A5E | 2.96 |
| G10I | 3.16 |
| G10S | 2.51 |
| G10D | 1.88 |
| G10E | 1.87 |
| G10C | 2.66 |
| G10W | 1.61 |
| G10N | 2.08 |
| G10Y | 1.86 |
| G10F | 2.51 |
| G10A | 1.92 |
| G10V | 2.73 |
| G10K | 2.26 |
| G10T | 2.12 |
| G10R | 1.94 |
| G10Q | 2.21 |
| G10M | 2.77 |
| G10H | 1.96 |

| Variant | protein stability index |
| --- | --- |
| G10P | 2.58 |
| A12H | 2.14 |
| A12T | 1.26 |
| A12K | 2.32 |
| A12D | 2.61 |
| A12V | 3.4 |
| A12E | 1.96 |
| A12L | 2.59 |
| A12M | 2.5 |
| A12C | 1.82 |
| A12N | 1.68 |
| A12G | 1.6 |
| A12R | 2.29 |
| A12Y | 2.82 |
| A12W | 1.59 |
| A12Q | 1.73 |
| A12S | 2.35 |
| A12P | 2.2 |
| A12F | 2.73 |
| A12I | 2.25 |
| N8M | 2.15 |
| N8D | 2.07 |
| N8A | 4.23 |
| N8F | 2.74 |

| Variant | protein stability index |
| --- | --- |
| N8R | 3.8 |
| N8E | 2.42 |
| N8Q | 1.73 |
| N8G | 2.5 |
| N8W | 3.78 |
| N8K | 1.33 |
| N8Y | 2.59 |
| N8T | 3.12 |
| N8S | 3.78 |
| N8V | 3.33 |
| N8C | 3.63 |
| N8H | 2.16 |
| N8P | 2.02 |
| N8L | 2.33 |
| L7C | 2.36 |
| L7P | 2.23 |
| L7H | 1.94 |
| L7G | 1.67 |
| L7A | 1.6 |
| L7S | 2.21 |
| L7K | 1.62 |
| L7V | 3.1 |
| L7Q | 1.54 |
| L7Y | 2.07 |

| Variant | protein stability index |
| --- | --- |
| L7E | 2.65 |
| L7M | 1.53 |
| L7F | 2.53 |
| L7I | 2.59 |
| L7N | 1.94 |
| L7D | 2.23 |
| L7T | 1.7 |
| A18K | 2.02 |
| A18I | 2.4 |
| A18R | 2.67 |
| A18G | 2.29 |
| A18N | 1.19 |
| A18V | 2.36 |
| A18S | 1.99 |
| A18E | 1.95 |
| A18L | 3.18 |
| A18C | 1.6 |
| A18Y | 2.37 |
| A18D | 2.22 |
| A18P | 2.04 |
| A18Q | 1.9 |
| A18T | 1.52 |
| A18F | 3 |
| A18M | 3.46 |

| Variant | protein stability index |
| --- | --- |
| A18H | 2.73 |
| A15W | 2.71 |
| A15L | 3.15 |
| A15E | 2.26 |
| A15P | 2.36 |
| A15C | 2.3 |
| A15H | 2.63 |
| A15R | 2.34 |
| A15K | 2.27 |
| A15M | 2.94 |
| A15N | 1.81 |
| A15Y | 2.09 |
| A15D | 2.32 |
| A15V | 2.31 |
| A15F | 2.78 |
| A15Q | 2.98 |
| A15I | 3.79 |
| A15T | 2.15 |
| A15S | 1.54 |
| A15G | 2.03 |
| S20A | 3.74 |
| S20C | 3.5 |

Reference: the supplement of paper PMC10567573
